Assay [1] has as its target T1, MBP (UniProt P0AEX9 27-396 = MBP). The assay is described as follows: Native-PAGE mobility shift, Coomassie staining (Fig. 6D).
Assay [2] deals with T1, MBP. Briefly: Native-PAGE mobility shift, Coomassie staining (Fig. 6C).

B1: 绿色荧光蛋白(GFP)纳米抗体 D5 (VHH)
VHH: DVQLQESGGGLVQPGGSLRLSCAASGIIFSIYDMGWYRQAPGKQRELVALITIHRSTNYEDSVKGRFTISRDNAKNTVYLQMNSLKPEDTAVYYCNANGVNYQYWGQGTQVTVSS
modifications: biotinylated (Sulfo-NHS-LC-biotin kit) in the ELISA of Example 5; not biotinylated in the Native-PAGE of Example 6
notes: Printed molecular weight 16.6 KDa; also called D5抗体; D5-biotin; not shown: Flag tag from vector pBAD24-Flag-His; C-terminal 6xHis tag from vector pBAD24-Flag-His
Turning to B1, in the assay with MBP [1], the binding result is given as “no binding (tested: 3μg MBP和3μg纯化的纳米抗体)”.

B2: 绿色荧光蛋白(GFP)纳米抗体 E6 (VHH)
VHH: DVQLQESGGGLVQAGGSLRLSCAASGRFVSSYIMGWFRQAPGKEREAVASILRSVDATYYADSVKGRFTISRDNDKNTVYLQMNSLKPEDTAVYYCATRARGYFGSFGRLWPDDRQYDYWGQGTQVTVSS
modifications: biotinylated (Sulfo-NHS-LC-biotin kit) in the ELISA of Example 5; not biotinylated in the Native-PAGE of Example 6
notes: Printed molecular weight 18.4 KDa; also called E6抗体; pBAD24-Flag-E6-His; not shown: Flag tag from vector pBAD24-Flag-His; C-terminal 6xHis tag from vector pBAD24-Flag-His
In the case of B2, the binding result with MBP [1] is “no binding (tested: 3μg MBP和3μg纯化的纳米抗体)”.

B3: 绿色荧光蛋白(GFP)纳米抗体 A12 (VHH)
VHH: DVQLQESGGGLVQAGGSLRLSCAASGGTFSILSLGWFRQAPGKEREFVAAISRSEGSTDYADFVKGRFMISRENAKNTAYLQMNSLKPEDTAVYFCAASYARRLSTTASRVLYWGQGTQVTVSS
modifications: biotinylated (Sulfo-NHS-LC-biotin kit) in the ELISA of Example 5; not biotinylated in the Native-PAGE of Example 6
notes: Printed molecular weight 15.7 KDa; also called A12抗体; pADL-10b-A12-His; not shown: C-terminal 6xHis tag from vector pADL-10b-His
Regarding B3, the binding result in the assay with MBP [2] is recorded as “no binding (tested: 3μg MBP和3μg纯化的纳米抗体)”.

Source of the values: CN108753792A (UNIV SUN YAT SEN, dated 2018).
